Patent publication US12618835B2, “Multiplex microelectrode array for detection of proteases as biomarkers” (Kansas State University Research Foundation, priority 2021, dated 2026)
Where no end group is shown, it is not given here. [ ]: non-standard residue; d: D form. The star is where a group is joined. aminomethylferrocene = [Fe+2].c1cc[c-](CN*)c1.c1cc[cH-]c1; Ava = NCCCCC(=O)O

Target: T1, recombinant human cathepsin B (rhCB) (Homo sapiens, UniProt P07858)
T1 construct: purchased R&D Systems Inc. (Minneapolis, MN)
Experiment: Electrochemical (ACV) proteolysis of peptide-Fc on Au MEA by activated rhCB in different buffers, Example 3
Type: biochemical
Method: Gold MEA Functionalization. The diced Au MEA chip was sonicated in acetone for 5 min to remove the photoresist protection layer, followed by rinsing with methanol and subsequently with isopropanol for 30 seconds. The Au MEA was then rinsed with deionized water and blow-dried with N2. Prior to use, the Au MEA chip was mounted in a home-made electrochemical cell described in our previous report and electrochemically cleaned by cycling voltammetry (CV) between −0.60 to 0.70 V in 0.10 M phosphate buffer (0.038 M NaH2PO4 and 0.061 M Na2HPO4, pH=7.4) vs. a mercury/mercurous sulfate reference electrode (MSE) filled with a saturated K2SO4 solution (CH Instruments, Austin, TX). The cleaned Au MEA was then rinsed with deionized water and blow-dried with N2. All electrochemical protease detection measurements in this study used an in-house synthesized hexapeptide H-15 attached with a ferrocene (Fc) redox tag, as the substrate (referred to as “peptide-Fc” in this study). […] To functionalize the MEA with this peptide-Fc substrate, the chip was first incubated in 1.0 mM 6-mercapto-1-hexanol mixed with 0.2 mM 6-mercapto-1-hexanoic acid in deionized water for 40 min to form a close-packed self-assembled monolayer (SAM) due to thiol adsorption on Au surface. The formed alkanethiol layer serves as an insulator to reduce the background current while providing a ratio of about 1:5 between —COOH and —OH groups at the top surface. The electrode was then incubated in 2.0 mM peptide-Fc substrate mixed with 0.2 g/L 1-ethyl-3-(3-dimethylaminopropyl)carbodiimide (EDC) and 0.2 g/L N-hydroxysulfosuccinimide (Sulfo-NHS) as coupling agents for 2 hours at room temperature to form amide bonds between the amine group in the peptide-Fc substrate and the carboxylic acid group on the SAM surface. […] The functionalized chip was rinsed with deionized water for 30 seconds to remove the physically adsorbed molecules.
Electrochemical Experiments. Electrochemical experiments were performed on a specially designed electrochemical cell mounted on a large copper block for temperature control by circulating thermostatic silicone liquid through the internal channels. The thermal circulator (Julabo, Allentown, PA) was set to achieve a temperature of 38.6° C. Two buffer solutions, 0.5×PB (pH=7.4) and 25 mM MES (pH=5.0), were used. In some experiments, the rhCB was activated by incubation in 25 mM MES buffer (pH=5.0) containing 5 mM DTT for 15 min. […] Fc signal on the Au surface was detected by alternating current voltammetry (ACV) with an AC frequency of 300 Hz and a voltage amplitude of 100 mV on a DC ramp from −0.45 V to 0.20 V vs. MSE. Electrochemical measurements were performed using an IVIUM n-Stat potentiostat (Eindhoven, The Netherlands), which allows measurement of up to ten independent working electrodes simultaneously versus a common MSE reference electrode and a common Pt coil counter electrode.
Principle of the Electrochemical Detection of Protease Activity. The sensing principles are described in Example 1. As shown in the cyclic voltammogram (CV) in FIG. 27, the Fc tag in the peptide-Fc functionalized at the Au microelectrode surface can be oxidized into ferrocenium (Fc^+), giving a pair of well-defined redox waves centered at −0.15 V (vs. MSE). These peaks disappeared after the peptide-Fc substrate was cleaved by proteolysis. The surface concentration of peptide-Fc substrate ΓSs can be derived from the integrated area under the oxidation peak to give ΓSs=3.1 pmol/cm^2, corresponding to an average nearest-neighbor distance of 7.9 nm between the peptide-Fc. This low density allows easy access by the protease. As further shown in FIG. 28, the weak faradaic signal can be amplified using ACV, i.e., applying an AC voltage on top of a DC potential ramp from −0.45 V to 0.20 V (vs. MSE). […]

## H2N-(CH2)4-CO-Pro-Leu-Ala-Phe-Val-Ala-NH-CH2-Fc ([Ava]PLAFVA-aminomethylferrocene) [Peptide H-15]
1.0 nM activated cathepsin B, 0.2×PBS pH=7.4
  inverse decay constant (1/τ): (7.65±0.42)×10^−4 s^−1
1.0 nM activated cathepsin B, 0.5×PB pH=7.4, 8 channels
  average measured activity (1/τ): (42.1±3.7)×10^−4 s^−1
1.0 nM activated cathepsin B, 0.5×PBS pH=7.4
  inverse decay constant (1/τ): (11.44±0.64)×10^−4 s^−1
1.0 nM activated cathepsin B, 1×PBS pH=7.4
  inverse decay constant (1/τ): (4.2±1.1)×10^−4 s^−1
1.0 nM activated cathepsin B, same Au MEA chip
  activity in 0.5×PB relative to 25 mM MES buffer: ~40 times
0.5×PB, 3σblank+(1/τ)blank
  LOD of activity: 0.000849 s⁻¹
0.5×PB, 3σblank/m
  LOD of cathepsin B concentration: 57.1 ± 0.41 pM
rhCB concentration above 1.0 nM, 0.5×PB
  saturated 1/τ value: about 45×10^−4 s^−1
